Consider three molecules from patent US20230159643A1 (H LUNDBECK A S, published 2023).

In test [1] the target is T1, human wild type Sortilin on S18-HEK cells (human, UniProt Q99523 78-831).
T1 sequence: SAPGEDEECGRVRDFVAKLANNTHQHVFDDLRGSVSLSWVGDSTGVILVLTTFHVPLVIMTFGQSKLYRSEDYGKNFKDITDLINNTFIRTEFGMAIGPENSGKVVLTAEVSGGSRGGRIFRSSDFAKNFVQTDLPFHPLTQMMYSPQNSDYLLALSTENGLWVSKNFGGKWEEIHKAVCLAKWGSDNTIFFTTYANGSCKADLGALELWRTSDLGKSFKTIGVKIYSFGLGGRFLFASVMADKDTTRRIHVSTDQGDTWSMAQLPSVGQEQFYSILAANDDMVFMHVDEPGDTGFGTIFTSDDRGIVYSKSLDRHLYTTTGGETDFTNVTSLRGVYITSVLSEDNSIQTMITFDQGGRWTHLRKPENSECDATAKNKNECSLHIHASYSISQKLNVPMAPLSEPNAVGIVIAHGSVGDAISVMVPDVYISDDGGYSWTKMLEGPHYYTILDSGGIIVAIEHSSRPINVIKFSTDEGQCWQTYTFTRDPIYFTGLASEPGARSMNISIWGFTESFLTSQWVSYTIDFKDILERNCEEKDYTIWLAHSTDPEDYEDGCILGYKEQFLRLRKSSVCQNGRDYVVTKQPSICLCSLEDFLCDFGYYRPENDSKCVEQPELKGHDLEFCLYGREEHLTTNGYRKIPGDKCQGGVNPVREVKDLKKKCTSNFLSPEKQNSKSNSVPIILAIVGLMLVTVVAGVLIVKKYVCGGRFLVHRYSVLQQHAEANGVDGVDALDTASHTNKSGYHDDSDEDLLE
In words: cell-based or functional assay.

In test [2] the target is T2, Sortilin SORTECDBAP_hB12390 (human/tetraodon chimera).
T2 construct: Shuffle construct
T2 chain: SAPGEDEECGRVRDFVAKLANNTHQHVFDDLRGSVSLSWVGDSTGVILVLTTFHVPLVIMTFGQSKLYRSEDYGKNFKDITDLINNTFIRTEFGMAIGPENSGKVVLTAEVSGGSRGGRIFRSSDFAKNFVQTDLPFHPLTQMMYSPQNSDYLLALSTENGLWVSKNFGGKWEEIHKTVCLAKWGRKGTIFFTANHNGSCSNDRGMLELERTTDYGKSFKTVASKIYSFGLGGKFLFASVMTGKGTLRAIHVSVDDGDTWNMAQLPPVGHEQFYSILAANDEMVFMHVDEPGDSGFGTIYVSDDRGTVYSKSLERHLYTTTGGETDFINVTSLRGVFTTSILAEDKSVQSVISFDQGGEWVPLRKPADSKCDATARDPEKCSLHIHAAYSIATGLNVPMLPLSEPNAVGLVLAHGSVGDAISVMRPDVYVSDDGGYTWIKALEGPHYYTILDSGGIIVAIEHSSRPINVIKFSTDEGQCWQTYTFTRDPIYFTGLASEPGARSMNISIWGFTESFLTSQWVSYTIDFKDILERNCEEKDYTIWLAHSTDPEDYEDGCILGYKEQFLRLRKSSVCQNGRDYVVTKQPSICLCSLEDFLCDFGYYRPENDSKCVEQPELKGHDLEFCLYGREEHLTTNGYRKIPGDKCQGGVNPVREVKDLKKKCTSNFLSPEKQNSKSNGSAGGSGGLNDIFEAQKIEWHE
In words: BLI Octet 384RED (Example 8), Sortilin construct in solution. On the procedure:
(§1) Binding kinetics of anti-Sortilin HuMab antibodies to Sortilin were determined using Octet 384RED (Fortebio, Menlo Park, USA). HuMab solutions of 2 μg/ml were made by dilution in sample diluent (ForteBio, art. No. 18-5028). Prot A sensors (ForteBio, art. no. 18-0004) were prewetted with kinetics buffer (1:10 sample diluent in PBS) for at least 600 seconds. Subsequently sensors were immobilized with HuMab solution for 600 seconds. A baseline response was obtained by dipping in kinetics buffer for 120 seconds. Association of SORTECD constructs was performed during a 1000 seconds incubation. This was followed by dissociation in kinetics buffer for 100 seconds. After dissociation, sensors were regenerated (10 mM Glycine pH 1.0) and neutralized (kinetics buffer) 3 times for 5 seconds. […] A molecular weight of 76.8 kDA was used for SORTECDHis. Data was fitted with ForteBio Analysis 6.4 software, using a global full fit.
(In general: In BLI a coated tip is dipped into the sample, and binding shifts an interference pattern.)

Test [3] addresses T3, Sortilin SORTECDBAP_hB45678 (human/tetraodon chimera).
T3 construct: Shuffle construct
T3 chain: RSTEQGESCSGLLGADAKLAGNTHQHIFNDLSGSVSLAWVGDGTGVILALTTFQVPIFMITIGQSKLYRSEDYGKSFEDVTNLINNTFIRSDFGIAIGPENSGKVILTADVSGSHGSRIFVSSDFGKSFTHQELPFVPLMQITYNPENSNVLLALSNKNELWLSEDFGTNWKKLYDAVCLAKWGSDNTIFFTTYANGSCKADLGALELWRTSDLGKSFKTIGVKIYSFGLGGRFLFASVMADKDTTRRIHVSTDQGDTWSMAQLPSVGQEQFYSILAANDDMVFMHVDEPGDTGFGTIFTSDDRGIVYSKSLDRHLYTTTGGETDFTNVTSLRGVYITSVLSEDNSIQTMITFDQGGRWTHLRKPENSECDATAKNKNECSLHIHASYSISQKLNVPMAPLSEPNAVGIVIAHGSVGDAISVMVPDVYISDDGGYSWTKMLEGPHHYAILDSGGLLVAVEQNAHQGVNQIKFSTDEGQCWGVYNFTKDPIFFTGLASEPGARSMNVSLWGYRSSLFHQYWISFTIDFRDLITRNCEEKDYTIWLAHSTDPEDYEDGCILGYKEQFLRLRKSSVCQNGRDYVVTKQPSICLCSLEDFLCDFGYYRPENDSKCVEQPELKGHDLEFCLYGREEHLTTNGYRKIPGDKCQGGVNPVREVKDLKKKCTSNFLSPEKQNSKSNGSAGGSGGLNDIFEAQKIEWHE
The test is described as above. On the procedure: as §1

B1: 1320 (antibody, V domains shown)
VH: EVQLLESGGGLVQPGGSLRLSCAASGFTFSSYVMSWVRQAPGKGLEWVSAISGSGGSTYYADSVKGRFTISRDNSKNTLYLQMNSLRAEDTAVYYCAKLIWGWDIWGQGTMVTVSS
VL: EIVLTQSPATLSLSPGERATLSCRASQSVSSYLAWYQQRPGQAPRLLIYDASNRATGIPARFSGSGSGTDFTLSISSLEPEDFAVYYCQQRTNWSITFGQGTRLEIK
notes: also called IgG1-6003-1320; Antibody 1320
B1: the “extracellular PGRN in medium of Sortilin over-expressing HEK cells (ELISA), % of untreated control” value (“extracellular PGRN … % of untreated control” for short) in test [1] amounted to 114%.

B2: Antibody 1F2 (antibody, V domains shown)
VH: EVQLVESGGDLVKPGGSLKLSCAASGFTFSSYGMSWVRQTPDKRLEWVAIISSGGSYTHYPDSVKGRFTISRDNAKNTLYLQMSSLKSEDTAMYYCARLCGPLCSGYWGQGTSVTVSS
VL: QAVVTQESALTTSPGETVTLTCRSSTGAVTTSNYANWVQEKPDHLFTGLIGGTNNRAPGVPARFSGSLIGDKAALTITGAQTEDEAIYFCALWYSNHFWVFGGGTKLTVLG
notes: Mouse anti-human Sortilin monoclonal antibody from hybridoma (BALB/c), purified on protein G; Assigned to the D Region; also called 1F2F4; Ab 1F2
Usually EC50 stands for the midpoint of the concentration-response curve. A high value points to weaker potency. Turning to B2, the “extracellular PGRN … % of untreated control” value in test [1] came out at 282%. This molecule came in with an EC50 in test [2] of 1.1 ng/mL. For the same molecule, the binding result in test [3] is reported as “no binding (tested: 10 µg/ml construct)”.

B3: Antibody 5E1 (antibody, V domains shown)
VH: EVHLVESGGDLVNPGGSLKLSCEASGFIFSIYGMSWVRQTPDKRLEWVAMISSGGIYTQYPDSVKGRFTISRDNAKNTLYLQMSGLKSEDTGTYHCTRHDDSWFAYWGQGTLVTVSA
VL: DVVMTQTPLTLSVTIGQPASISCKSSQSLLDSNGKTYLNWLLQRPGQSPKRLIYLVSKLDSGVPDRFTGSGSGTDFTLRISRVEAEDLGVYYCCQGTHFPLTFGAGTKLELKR
notes: Mouse anti-human Sortilin monoclonal antibody from hybridoma (BALB/c), purified on protein G; Assigned to the D Region; also called 5E1F6; Ab 5E1
With B3, in test [1], the “extracellular PGRN … % of untreated control” value was determined as 177%. In test [2], this molecule had an EC50 of 0.59 ng/mL. In test [3], the binding result is given as “no binding (tested: 10 µg/ml construct)”.
